From patent publication US20260242735A1 (UNIVERSIT T BASEL, published 2026) come the findings set out here.

Holding throughout (test): BLI (Octet R8), avidity format: biotinylated CD33 on streptavidin sensor, Refmab #1 as analyte at 300 or 500 nM;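 note: sensorgrams recorded with a 300 s analyte association phase followed by a 900 s dissociation phase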
Background: Biolayer interferometry detects binding as a change in optical thickness at a sensor tip.

For assay [1], the target named is CD33 double variant Y50H_H49H (recombinant, biotinylated) (human, UniProt P20138 18-259, biotinylated with EZ-Link Sulfo-NHS-LC-Biotin (sites not given)).
Assay [2] addresses CD33 variant Y50K (recombinant, biotinylated) (human, UniProt P20138 18-259, biotinylated with EZ-Link Sulfo-NHS-LC-Biotin (sites not given)).
Assay [3] concerns the target CD33 variant N20H (recombinant, biotinylated) (human, UniProt P20138 21-259, biotinylated with EZ-Link Sulfo-NHS-LC-Biotin (sites not given)).
Assay [4] has as its target CD33 variant N20E (recombinant, biotinylated) (human, UniProt P20138 21-259, biotinylated with EZ-Link Sulfo-NHS-LC-Biotin (sites not given)).
The target of assay [5] is CD33 variant N20K (recombinant, biotinylated) (human, UniProt P20138 21-259, biotinylated with EZ-Link Sulfo-NHS-LC-Biotin (sites not given)).
For assay [6], the target named is CD33 variant N20G (recombinant, biotinylated) (human, UniProt P20138 21-259, biotinylated with EZ-Link Sulfo-NHS-LC-Biotin (sites not given)).
Assay [7] deals with CD33 variant F44P (recombinant, biotinylated) (human, UniProt P20138 18-259, biotinylated with EZ-Link Sulfo-NHS-LC-Biotin (sites not given)).
Assay [8] addresses CD33 variant W22D (recombinant, biotinylated) (human, UniProt P20138 18-259, biotinylated with EZ-Link Sulfo-NHS-LC-Biotin (sites not given)).
For assay [9], the target named is CD33 variant W22R (recombinant, biotinylated) (human, UniProt P20138 18-259, biotinylated with EZ-Link Sulfo-NHS-LC-Biotin (sites not given)).
Assay [10] concerns the target CD33 variant F21H (recombinant, biotinylated) (human, UniProt P20138 22-259, biotinylated with EZ-Link Sulfo-NHS-LC-Biotin (sites not given)).
In assay [11] the target is CD33 variant F21I (recombinant, biotinylated) (human, UniProt P20138 22-259, biotinylated with EZ-Link Sulfo-NHS-LC-Biotin (sites not given)).
Assay [12] addresses CD33 variant F21M (recombinant, biotinylated) (human, UniProt P20138 22-259, biotinylated with EZ-Link Sulfo-NHS-LC-Biotin (sites not given)).
Assay [13] addresses CD33 variant Y50R (recombinant, biotinylated) (human, UniProt P20138 18-259, biotinylated with EZ-Link Sulfo-NHS-LC-Biotin (sites not given)).
For assay [14], the target named is CD33 variant W22K (recombinant, biotinylated) (human, UniProt P20138 18-259, biotinylated with EZ-Link Sulfo-NHS-LC-Biotin (sites not given)).
Assay [15] concerns the target CD33 variant Y50D (recombinant, biotinylated) (human, UniProt P20138 18-259, biotinylated with EZ-Link Sulfo-NHS-LC-Biotin (sites not given)).
The target in assay [16] is CD33 variant N20V (recombinant, biotinylated) (human, UniProt P20138 21-259, biotinylated with EZ-Link Sulfo-NHS-LC-Biotin (sites not given)).
Assay [17] has as its target CD33 variant F21N (recombinant, biotinylated) (human, UniProt P20138 22-259, biotinylated with EZ-Link Sulfo-NHS-LC-Biotin (sites not given)).
Assay [18] concerns the target T1, CD33 wild type (recombinant, biotinylated) (human, UniProt P20138 18-259, biotinylated with EZ-Link Sulfo-NHS-LC-Biotin (sites not given)).
T1 construct: also called WT; CD33 wt

For assay [19], the target named is CD33 variant W22T (recombinant, biotinylated) (human, UniProt P20138 18-259, biotinylated with EZ-Link Sulfo-NHS-LC-Biotin (sites not given)).
The target of assay [20] is CD33 variant W22E (recombinant, biotinylated) (human, UniProt P20138 18-259, biotinylated with EZ-Link Sulfo-NHS-LC-Biotin (sites not given)).
Assay [21] deals with CD33 variant F21L (recombinant, biotinylated) (human, UniProt P20138 22-259, biotinylated with EZ-Link Sulfo-NHS-LC-Biotin (sites not given)).
For assay [22], the target named is CD33 variant F21S (recombinant, biotinylated) (human, UniProt P20138 22-259, biotinylated with EZ-Link Sulfo-NHS-LC-Biotin (sites not given)).
The target of assay [23] is CD33 variant F21V (recombinant, biotinylated) (human, UniProt P20138 22-259, biotinylated with EZ-Link Sulfo-NHS-LC-Biotin (sites not given)).
Assay [24] has as its target CD33 variant F21Q (recombinant, biotinylated) (human, UniProt P20138 22-259, biotinylated with EZ-Link Sulfo-NHS-LC-Biotin (sites not given)).

T1 sequence (P20138 other isoform, or with tags, fused parts or gaps): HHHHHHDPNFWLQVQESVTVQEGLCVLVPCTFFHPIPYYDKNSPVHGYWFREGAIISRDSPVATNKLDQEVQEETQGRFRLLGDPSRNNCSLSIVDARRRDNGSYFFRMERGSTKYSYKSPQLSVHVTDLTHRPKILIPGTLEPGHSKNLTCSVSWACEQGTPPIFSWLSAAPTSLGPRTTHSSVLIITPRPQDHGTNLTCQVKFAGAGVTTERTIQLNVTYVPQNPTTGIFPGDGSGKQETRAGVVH
Sequence of CD33 variant Y50D (recombinant, biotinylated) (P20138 other isoform, or with tags, fused parts or gaps Y50D Y50D): as the sequence (P20138 other isoform, or with tags, fused parts or gaps) above, with Y39D counted along it
Sequence of CD33 variant Y50R (recombinant, biotinylated) (P20138 other isoform, or with tags, fused parts or gaps Y50R Y50R): as the sequence (P20138 other isoform, or with tags, fused parts or gaps) above, with Y39R counted along it
Sequence of CD33 variant F21Q (recombinant, biotinylated) (P20138 other isoform, or with tags, fused parts or gaps F21Q F21Q): as the sequence (P20138 other isoform, or with tags, fused parts or gaps) above, with F10Q counted along it
Sequence of CD33 variant W22D (recombinant, biotinylated) (P20138 other isoform, or with tags, fused parts or gaps W22D W22D): as the sequence (P20138 other isoform, or with tags, fused parts or gaps) above, with W11D counted along it
Sequence of CD33 variant N20K (recombinant, biotinylated) (P20138 other isoform, or with tags, fused parts or gaps N20K N20K): as the sequence (P20138 other isoform, or with tags, fused parts or gaps) above, with N9K counted along it
Sequence of CD33 variant F21L (recombinant, biotinylated) (P20138 other isoform, or with tags, fused parts or gaps F21L F21L): as the sequence (P20138 other isoform, or with tags, fused parts or gaps) above, with F10L counted along it
Sequence of CD33 variant N20E (recombinant, biotinylated) (P20138 other isoform, or with tags, fused parts or gaps N20E N20E): as the sequence (P20138 other isoform, or with tags, fused parts or gaps) above, with N9E counted along it
Sequence of CD33 variant Y50K (recombinant, biotinylated) (P20138 other isoform, or with tags, fused parts or gaps Y50K Y50K): as the sequence (P20138 other isoform, or with tags, fused parts or gaps) above, with Y39K counted along it
Sequence of CD33 variant F44P (recombinant, biotinylated) (P20138 other isoform, or with tags, fused parts or gaps F44P F44P): as the sequence (P20138 other isoform, or with tags, fused parts or gaps) above, with F33P counted along it
Sequence of CD33 variant F21I (recombinant, biotinylated) (P20138 other isoform, or with tags, fused parts or gaps F21I F21I): as the sequence (P20138 other isoform, or with tags, fused parts or gaps) above, with F10I counted along it
Sequence of CD33 variant W22T (recombinant, biotinylated) (P20138 other isoform, or with tags, fused parts or gaps W22T W22T): as the sequence (P20138 other isoform, or with tags, fused parts or gaps) above, with W11T counted along it
Sequence of CD33 variant N20V (recombinant, biotinylated) (P20138 other isoform, or with tags, fused parts or gaps N20V N20V): as the sequence (P20138 other isoform, or with tags, fused parts or gaps) above, with N9V counted along it
Sequence of CD33 variant F21H (recombinant, biotinylated) (P20138 other isoform, or with tags, fused parts or gaps F21H F21H): as the sequence (P20138 other isoform, or with tags, fused parts or gaps) above, with F10H counted along it
Sequence of CD33 variant F21V (recombinant, biotinylated) (P20138 other isoform, or with tags, fused parts or gaps F21V F21V): as the sequence (P20138 other isoform, or with tags, fused parts or gaps) above, with F10V counted along it
Sequence of CD33 variant W22K (recombinant, biotinylated) (P20138 other isoform, or with tags, fused parts or gaps W22K W22K): as the sequence (P20138 other isoform, or with tags, fused parts or gaps) above, with W11K counted along it
Sequence of CD33 variant N20G (recombinant, biotinylated) (P20138 other isoform, or with tags, fused parts or gaps N20G N20G): as the sequence (P20138 other isoform, or with tags, fused parts or gaps) above, with N9G counted along it
Sequence of CD33 variant N20H (recombinant, biotinylated) (P20138 other isoform, or with tags, fused parts or gaps N20H N20H): as the sequence (P20138 other isoform, or with tags, fused parts or gaps) above, with N9H counted along it
Sequence of CD33 variant W22E (recombinant, biotinylated) (P20138 other isoform, or with tags, fused parts or gaps W22E W22E): as the sequence (P20138 other isoform, or with tags, fused parts or gaps) above, with W11E counted along it
Sequence of CD33 double variant Y50H_H49H (recombinant, biotinylated) (P20138 other isoform, or with tags, fused parts or gaps Y50H H49H Y50H H49H): as the sequence (P20138 other isoform, or with tags, fused parts or gaps) above, with Y38H, Y39H counted along it
Sequence of CD33 variant W22R (recombinant, biotinylated) (P20138 other isoform, or with tags, fused parts or gaps W22R W22R): as the sequence (P20138 other isoform, or with tags, fused parts or gaps) above, with W11R counted along it
Sequence of CD33 variant F21M (recombinant, biotinylated) (P20138 other isoform, or with tags, fused parts or gaps F21M F21M): as the sequence (P20138 other isoform, or with tags, fused parts or gaps) above, with F10M counted along it
Sequence of CD33 variant F21N (recombinant, biotinylated) (P20138 other isoform, or with tags, fused parts or gaps F21N F21N): as the sequence (P20138 other isoform, or with tags, fused parts or gaps) above, with F10N counted along it
Sequence of CD33 variant F21S (recombinant, biotinylated) (P20138 other isoform, or with tags, fused parts or gaps F21S F21S): as the sequence (P20138 other isoform, or with tags, fused parts or gaps) above, with F10S counted along it

B1: Refmab #1 (antibody, human IgG1, V domains shown)
VH: EVQLVQSGAEVKKPGSSVKVSCKASGYTITDSNIHWVRQAPGQSLEWIGYIYPYNGGTDYNQKFKNRATLTVDNPTNTAYMELSSLRSEDTAFYYCVNGNPWLAYWGQGTLVTVSS
VL: DIQLTQSPSTLSASVGDRVTITCRASESLDNYGIRFLTWFQQKPGKAPKLLMYAASNQGSGVPSRFSGSGSGTEFTLTISSLQPDDFATYYCQQTKEVPWSFGQGTKVEVK
notes: also called hP67.6; Absolute Antibody Cat. No. Ab00283-10.0
Consider B1, for which the “% WT binding” value came to 95.8 % WT binding in assay [1]; 86.6 % WT binding in assay [2]; 32.9 % WT binding in assay [3]; 5.59 % WT binding in assay [4]; 6.79 % WT binding in assay [5]; 9.44 % WT binding in [6]. Besides, the “% WT binding” value in [7] was 2 % WT binding; in assay [8], 12.7 % WT binding; in [9], 51.9 % WT binding; in [10], 10.4 % WT binding; in assay [11], 0 % WT binding; in assay [12] it was 6.62 % WT binding. Moreover, the “% WT binding” value in assay [13] is 108 % WT binding; in assay [14], 22.4 % WT binding; in assay [15], 131 % WT binding; in assay [16], 29.3 % WT binding; in assay [17], 0 % WT binding; in assay [18], 100 % WT binding. In addition, the “% WT binding” value in assay [19] came to 37.5 % WT binding; in assay [20], 67.5 % WT binding; in assay [21] it was 12.2 % WT binding; in assay [22] it was 9.03 % WT binding; in assay [23] it was 5.41 % WT binding; in [24] it was 0 % WT binding.
